Assay: soluble on expression in E. coli; label from the status in PepcDB or PDB records

Sequence	soluble on expression in E. coli
MAPPTFADLGKSAKDLFNKGYNFGFLKIDSTTRAGDNKEVEFKSAASHNIGSGKLGGNLDVKYKIPQYGITLTEKWNTENQLGTVIEVNEQFGRGLKVTLDSLYAPHAGKRSGKVKLDWALPTARVTADVGVTSAPVINAAGVFSRDGWLIGAAATFDSSSNKLAATSLAFGHSTPQYTLHSFVINSTDFGASLYHKVASNVEVGTQLGWKVGGNGADYALATKYAPSRDLTVRAKVNSSSQVAVAATHSLSPALKLTLSTQFNLAANDAHKFGLGLEFDPSN	not soluble
MGHHHHHHSHMRIVFDIGGSVLVPEKPDVDFITKLGYELTKISEDHEIAIVVGGGKVAREYIEVASKFNTNETFKDYLGIQITRANAMLLIAALKERAYPQVVSDFWEAWKAIQLKKIPVMGGTHPGHTTDAVSALLAEFLSADLLVVITNVDGVYTEDPKKNPNAKKIPKMKAKDLVDIVSREAGKAGVSTVIDPLAAKIIMRSGIKTYVIG	not soluble
MLYKEPEDGEKIKFDKGKWIVPNKPVILYIEGDGIGPEITNAAIKVINKAVERAYGSSREIKWLEVYAGEKAEKLVNDRFPKETQEMLLKYRVVLKGPLETPIGKGWKSVNVAIRLMLDLYANIRPVKYIEGLESPLKHPEKVDMIIFRENTDDLYRGIEYPFNSEEAKKIRDFLRKELKVEIEDDTGIGIKVMSKYKTQRITRLAIQYAIEHKRKKVTIMHKGNVMKYTEGAFREWAYEVALKEYRDFIVTEEEINQGKPDQGKIILNDRIADNMFQQIIIRPEEYDIILAPNVNGDYISDAAGALIGNIGMLGGANIGDEGGMFEAIHGTAPKYAGKNVANPTGIIKAGELMLRWMGWNEAADLIEKAINMAIRDKKVTQDIARFMGVKALGTKEYADELIKIMDTI	soluble
MSLRLLPQPQQCVLAKGYFIVGKMQLSTPVLSQEWKQFVTEMGGTLTDQSASSINIKLVDAIDNVSVNKEEAYRLTITPKAITVEAVAERGVYWAMQTLYQLKEEKGKKNRLQCATITDWPAFRIRGFMQDVGRSYLSLEELKREIAILSRFKINTFHWHLTENQAWRLESKIFPMLNDSTNMTRMAGKYYTLEEARELTEFCKAHQVLLIPEIDMPGHSAAFIRTFRHDMQSPEGMKILKLLLDEICETFDVPYLHIGTDEVHFTNPQFVPEMVAYVRDKGKKVISWNPGWKYKAGEIDMMQLWSYRGKAQQGIPAIDSRFHYLNHFDTFGDIIALYNSRIYNADMGSDDLAGVIMGIWNDRLIDKEWNMVLENNFYPNMLAIAERSWRGGGTEYFDKQGTILPVDENSEVFRNFEDFESRMLWYKEHLFKGYPFAYVKQTHVKWNITDAFPNEGDLTKVFPPEEELKDSYTYEGKQYGVRPAIGAGIYLRHVWGKIVPAFYKDPQENHTAYAYTYVYSSKTQEVGLWAEFQNYGRSENDLPPLPGKWDYKESRIWINDQEILPPVWSATHLVKSSETALGNENCVARPPLRVHLHKGWNKVLLKLPVGKFSTNEVRLVKWMFTAVFVTPDGDKAVEGLIYSPEKEGHHHHHH	soluble
DIVMTQSPDSLAVSPGERATINCKSSQNLLDSSFDTNTLAWYQQKPGQPPKLLIYWASSRESGVPDRFSGSGSGTDFTLTISSLQAEDVAVYYCQQYYSTPPTFGGGTKVEIKR	soluble
MAISGVTLEESVRGAIDDLRMKKSRYVMMCIGADGKKIEVTEVGERSVNYTDLKEKFSTEKPCYVAFDFEYNDAGSKREKLILIQWIPDTARPREKMMYSASRDALSSVSEGYLPIQANDESGLDAEEIIRKVRLHRSVAAALE	soluble
GAMSVASLPECVKNFFPTEQLEFSSSITADEKPVLHEVFQKHSCFSQCGEMIDEVSKKHPELGKRLATVLEGNKKRLDGLSPAAVEYAKKLIHMVTTTLCSLTVGKPIDDADAKRLHQEFQSLSSEDQAALRKNNPDIKF	soluble
MGSDKIHHHHHHMIPYNQSSVSTLQTKERKIDVFSVEGNVDNETVKSFGEEWTAFDSFNETEIYNAGDNYFDIVPETILKHITNALDVGCGTGRWSYYLSEKVGFIECIDPSEAVIAASSLLSGKNNIRISKAGVDNIPFADGTFDFVFSLGVLHHVPDTKKAVHACVQKLKMNGHILLYLYYNLENRGLIFKTLFHLSNSLRWMVSKLPGAIKRFVCDLLAIVIYMPFVIVSRILIKLNLAASVVSRVPLSWYADKSFNIIRNDSLDRFGTPLEQRFSKQQITDMLIHAGCTDIVFADNAPFWRVIAKKK	not soluble
VLTCNEAFARMRGQSVKEIEGSSIVSLYAPEDQQMVKDKLKITDSTGFCSCQAKMMRKDGTIFPVQIDVVGLKDENGQIMYRIVTVQDSTER	not soluble
MGSDKIHHHHHHMTQNLRVIIDARMVNKHLHGIARYTYEIIKHMSYEDNVEMILLVNDLEEASKIFGQFNNIKFKRMRSKFLSIFEQIELPMIVNKYKNMAIFHSPSFVASPFIKCKMIMTIHDLNHLKFPQYYTPFHKYYYKYIVKKCALKSKKILTVSEFSKEEIFKWIKCDRDKIKVTYNGIDPKFHVISDAEKLKKIKEKYKLPDRFILYIGNLKPHKNVETLVKAMRFIDGKVKLVINGTINKSISEILDKFNLLEKVKFIGYVNEDELPLLYNLASVFVFPSLYEGFGLPPLEAAVCGCKVIISDISSLSEIMSDYGVKVNPLDSKGMAREIKKILENSSIDICNKEKETFVQKYSWNKTSSKTLEIYKEINKEFL	not soluble
SYSKTNEAAIEKTRHIANAAVYGRPEYRYNGALNLHYRPKRTDSTLLLNGGMNLNGEVLIEGGNMIVSGRPVPHAYDHQAKREPVLENEWTDGSFKAARFTLRNHARLTAGRNTAHLDGDITAYDLSGIDLGFTQGKTPECYRSYHSGSTHCTPNAVLKAENYRALPATQVRGDITLNDRSELRLGKAHLYGSIRAGKDTAVRMEA	not soluble
MSLNLGDLTNFVEKPLAAVSNIVNTPNSAGRYRPFYLRNLLDAVQGRNLNDAVKGKVVLITGGSSGIGAAAAKKIAEAGGTVVLVARTLENLENVANDIRAIRGNGGTAHVYPCDLSDMDAIAVMADQVLGDLGGVDILINNAGRSIRRSLELSYDRIHDYQRTMQLNYLGAVQLILKFIPGMRERHFGHIVNVSSVGVQTRAPRFGAYIASKAALDSLCDALQAETVHDNVRFTTVHMALVRTPMISPTTIYDKFPTLTPDQAAGVITDAIVHRPRRASSPFGQFAAVADAVNPAVMDRVRNRAFNMFGDSSAAKGSESQTDTSELDKRSETFVRATRGIHWEGHHHHHH	not soluble
MRRNGSVPDLNKNDAFRRPPAPKGGVEKRKKGRASGLDGRQKRYVRGAESLGSVLNKEIQRRGWGKDIAGGWVTSNWEELVGAKIAQHTRVEMIKDKKLFITCDSTAWATNLRMMQRQILQVIAEKVGPNIITELRIFGPQAPSWRKGPLHVKGRGPRDTYG	not soluble
MSSNQYIQSLELTNFTVLPNDTFEFSENLNVIVAENGCGKTHLLKILYSLLEVTSNTKNRLLKTELQKSFADKLLNVFRPDSLGRLSKRLQGRGRTEIVLKLQNGTTHSSLNFSSNSSSQVNVQSIGLKENEYTPTPIFLPSRELITLCPWFTSLYQNQSIPFEETWFDTCMQLNHPLAKGPRETKIRELLEPIENAMGGKVSEEQGRFYLSLTNTGGKIEAPLVAEGLRKFVMIARLIATGALLDKGYLFWDEPEANLNPKLIKVAARIIWSLSQQGIQVFIATHSLFLLRELELLKLENNTDLPVRFFSLIASDDGTKVEQGNSINDLNTLILLDENIMQADRYLNI	not soluble
MGSDKIHHHHHHMYNEYQPSLLLAPYIDKYWEFKGNPDYGMKINILPDGCTDFIFTLGEVADIAEQESLIMQPYRSYFVGPMSRYSTLITYAKSIHMFGIRFLPCGLFRFMQLPLEELGNQRISTFESGGIFNDSLAERLCEQPYIQDKIRLIESFLTQALCTNNKIEKQISYAVDCINLSKGQLPIRSLVENVCLCQRHFERKFKHQTGYSPKEYSRIIKFKNAVDLLRSTSSNQLFSVAIEAGYYDTAHLSKEIKALSGNTPGSFLSLPVTEETTLTYLKL	not soluble
MLELKPPLVLLSGPAGFGEYLKLMDHRYVGGVLLKTVTLHPKEGNPTPRMADSDFYVINRIGLENPGIHAFVENIPELPVPMIASLGGDSFEEYLEVARVFKKVADRFYAVEFNFSCPNVKEGGLSIVKNAEEWKKLLNTLRKELPDSFLIAKVGVEGIFVEDAAEFVMKTGWDGITLVNTVRGLHFEKDTMILGGLSGPVLKPIALRAVYEVKKRFPELFVIASGGVYSVKDAEEFLKVGADVIGVGSALFKDPGVVEEIGKYLLEVKR	soluble
MGSDKIHHHHHHMGSGSVIWRLLPPAQGDPTTELAAGAAMLAGLKETNCPAIRWYAAGSRPALVIGSGQKLSDVDHTALRQQGVTLHRRSSGGTAVLFVPGLLMQDIALPLDHPLYHPDVSESYRWLGDVWQATLAQFGIHTSLIDIAAARADRQTLDPLIARACFGGQSPYEVLVAGRKLVGFAQIRRREGVLFQVGLYTHWPGRQLATLLAMNEAERTIFGERLADRVTDLVTVCESPPDIHQIAAAFAMVLRQRYEVSITAADWTEAEREAMIAAQARFAPLRLEG	not soluble
MSLCELLGMSANVPTDIVFSFTGLMQRGGGTGPHRDGWGIAFYEGRGVRLFQDPLASVDSEVARLVQRFPIKSETVIGHIRQANVGKVGLSNTHPFIRELGGRYWTFAHNGQLADFQPKPGFYRPVGETDSEAAFCDLLNRVRRAFPEPVPVEVLLPVLISACDEYRKKGVFNALISDGDWLFTFCSSKLAYITRRAPFGPARLKDADLTVDFHAETTPDDVVTVIATEPLTDNENWTLQQSGEWVLWWGGEVLAKGEGGSHHHHHH	soluble
VSDGEQAKSRRRRGRRRGRRAAATAENHMDAQPAGDATPTPATAKRSRSRSPRRGSTRMRTVHETSAGGLVIDGIDGPRDAQVAALIGRVDRRGRLLWSLPKGHIELGETAEQTAIREVAEETGIRGSVLAALGRIDYWFVTDGRRVHKTVHHYLMRFLGGELSDEDLEVAEVAWVPIRELPSRLAYADERRLAEVADELIDKLQSDGPAALPPLPPSSPRRRPQTHSRARHADDSAPGQHNGPGPGP	not soluble
MSLAEQESLALFDDTTEELFMKGTMLSTIFYNAENLFSVVRILVKETNADWDEKDIIVTGFFPALHEQEVYTFYGKMQEHAKFGQQFKADRFRKEMPQSRAGLINYLSGELFKGIGKVTAENIVDTIGDDAITKILSDPSLLNTVPKLPSGAAESLLASLRENQGLEHVMVGLNEYGFGPQLSMKIFQAYKQNAIEVLENNPYKLIEDVKGIGFQRADELGRKLGLGGNHPERLRAGILFMLDSVCMQQGHVYMEQEVLLGEVTYLLEESEGIRIDQSILVAQVEKLAEEQKIITENTRVYMPSLYYSESGFAYHVKRMLKQTEYQEQFPQSEFLLALGELEERIGVHYGDSQRQALEQALMSPMLVLTGGPGTGKTTVIKGIVELYAELNGVSLDPHAYKDGATFPVLLAAPTGRAAKRMSESTGLPAMTIHRLLGMNGQEQMDDDAERLIDGRLLIVDEMSMVDIWLANQLFRALPAHMQVVLVGDQDQLPSVGPGQVLKDILQSEQIPTVALSDIYRQKDGSSIIEMAHYIKEGMLPADFTKNSADRSFFHCTVNQIGDVVEQVVKNAKNKGFRAKDIQVLAPMYRGPAGIDILNKKLQEIFNPNDTGRRKEVQFGDIKYRVHDKVLQLINQPEKNVFNGDIGEIVSIIYAKENTEKQDLIVVQFDQTEVSYYRQEFNQLTHAYCCSIHKAQGSEFPIVIMPIVRSYYRMLRRDLLYTGVTRSKQFLILCGEEEAFRMGIERIDENKRNTTLSERLMSEDVLLEQMTNKRILTAENITEIDPMIGMEGITPEQFMVGEGHHHHHH	soluble
MGHHHHHHSHMAFILCPLTCPGECEGSTGKLECCLCLPSQWAVLTAAPHPYRWSQEAGRVGEGKIGKTGRPRPRQNSLSSLHFWSPVVMCL	not soluble

Source: the DeepSol protein solubility set
